From patent US20250353908A1 (ARCELLX, published 2025)

Molecular target: T1, CS1-Fc (human, UniProt Q9NQ25 23-226)
T1 construct: also called recombinant human CS1-Fc; CS1-Fc polypeptide; not shown: Fc portion of CS1-Fc
T1 sequence: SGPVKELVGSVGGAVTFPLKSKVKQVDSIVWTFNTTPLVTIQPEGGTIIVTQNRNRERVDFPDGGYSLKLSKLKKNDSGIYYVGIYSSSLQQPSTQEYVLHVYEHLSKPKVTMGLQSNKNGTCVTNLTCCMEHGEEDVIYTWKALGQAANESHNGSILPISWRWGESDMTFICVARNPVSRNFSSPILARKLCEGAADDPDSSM
Assay: SPR (Biacore), adapter protein DD-GS linker-Q26, CS1-Fc target
Text: One or more of the above discussed methods were used to identify the SEQ ID NO: 41-47, 49-61, 91-93 and 96-106 variant CS1 specific D domains. […] In addition to binding human CS1, the CS1DD03, CSDD006 and CS1DD007 D domains are cross-reactive with cyno/rhesus CS1.

B1: CS1DD021 adapter protein of the format DD-GS linker-Q26 (designed binder)
chain: MGSWDEFNQRLGAFEERLQALGGSEAELAALEKEIAAFESELQAYKGKGNPEVEFLRWYADGIRWELQAYRHN
  Kd: 16 nM
